Laboratory results as given in the RNAGym collection of RNA variant scans (doi:10.1093/nar/gkz1192).

B1: CPEB3 Ribozyme (parent)
chain: UAACAGGGGGCCACAGCAGAAGCGUUCACGUCGCAGCCCCUGUCAGAUUCUGGUGAAUCUGCGAAUUCUGCUGUAUAUCUC

Variants of: B1
Test: self-cleavage, relative activity (ratio to wild type); higher = more cleavage; in vitro, sequencing
In short: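 Relative activity compares each variant's cleaved/total read fraction with that of the unmutated ribozyme. To get these fractions, barcoded CPEB3 ribozyme libraries from rounds of error-prone PCR were transcribed with T7 RNA polymerase for 5 hours at 37°C and then given 15 min of DNase I treatment before EDTA was added. The RNAs were reverse transcribed with template switching and sequenced on Illumina, and DNA sequencing linked barcodes to variants. A minimum of 5 reads applied, and three batches were averaged.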
With UAACAGGGGGCCACAGCAGAAGCGUUCACGUCGCAGCCCCUGUCAGAUUCCGGCGAAUCUGCGAAUUCUGCUGUAUAUCUC [U51C U54C] the self-cleavage was 1.07. In the case of UAACAGGGGGCCACAGCAGAAGCGUUCACGUCGCAGCCCCUGUCAGAUUCCGGGGAAUCUGCGAAUUCUGCUGUAUAUCUC [U51C U54G], the self-cleavage is reported as 0.82. In the case of UAACAGGGGGCCACAGCAGAAGCGUUCACGUCGCAGCCCCUGUCAGAUUCCGGAGAAUCUGCGAAUUCUGCUGUAUAUCUC [U51C U54A], the self-cleavage is reported as 1.03. With UAACAGGGGGCCACAGCAGAAGCGUUCACGUCGCAGCCCCUGUCAGAUUCCGGUGAAUCUCCGAAUUCUGCUGUAUAUCUC [U51C G61C] the self-cleavage was 0.25. Variant UAACAGGGGGCCACAGCAGAAGCGUUCACGUCGCAGCCCCUGUCAGAUUCCGGUGAAUCUACGAAUUCUGCUGUAUAUCUC [U51C G61A] has a self-cleavage of 0.71. UAACAGGGGGCCACAGCAGAAGCGUUCACGUCGCAGCCCCUGUCAGAUUCAGGUGAAUCUGCGAAUUCUGCGGUAUAUCUC [U51A U72G] showed a self-cleavage of 0.91. UAACAGGGGGCCACAGCAGAAGCGUUCACGUCGCAGCCCCUGUCAGAUUCCAGUGAAUCUGCGAAUUCUGCUGUAUAUCUC [U51C G52A] showed a self-cleavage of 1.15. For UAACAGGGGGCCACAGCAGAAGCGUUCACGUCGCAGCCCCUGUCAGAUUCCCGUGAAUCUGCGAAUUCUGCUGUAUAUCUC [U51C G52C], the self-cleavage was 1. In the case of UAACAGGGGGCCACAGCAGAAGCGUUCACGUCGCAGCCCCUGUCAGAUUCCUGUGAAUCUGCGAAUUCUGCUGUAUAUCUC [U51C G52U], the self-cleavage is reported as 0.94. For UAACAGGGGGCCACAGCAGAAGCGUUCACGUCGCAGCCCCUGUCAGAUUCCGGUGAAUCUGGGAAUUCUGCUGUAUAUCUC [U51C C62G], the self-cleavage was 0.39. In the case of UAACAGGGGGCCACAGCAGAAGCGUUCACGUCGCAGCCCCUGUCAGAUUCCGGUGAAUCUGUGAAUUCUGCUGUAUAUCUC [U51C C62U], the self-cleavage is reported as 0.31. In the case of UAACAGGGGGCCACAGCAGAAGCGUUCACGUCGCAGCCCCUGUCAGAUUCCGGUGAAUCUGAGAAUUCUGCUGUAUAUCUC [U51C C62A], the self-cleavage is reported as 0.31. With UAACAGGGGGCCACAGCAGAAGCGUUCACGUCGCAGCCCCUGUCAGAUUCCGGUGAAUCUGCGAAUUCUGCUGUAUAUAUC [U51C C79A] the self-cleavage was 1.24. For UAACAGGGGGCCACAGCAGAAGCGUUCACGUCGCAGCCCCUGUCAGAUUCCGGUGAAUCUGCGAACUCUGCUGUAUAUCUC [U51C U66C], the self-cleavage was 0.49. Work on UAACAGGGGGCCACAGCAGAAGCGUUCACGUCGCAGCCCCUGUCAGAUUCCGGUGAAUCUGCGAAAUCUGCUGUAUAUCUC [U51C U66A] yielded a self-cleavage of 0.65. Work on UAACAGGGGGCCACAGCAGAAGCGUUCACGUCGCAGCCCCUGUCAGAUUCCGGUGAAUCUGCGAAUUCUGAUGUAUAUCUC [U51C C71A] yielded a self-cleavage of 0.53. Variant UAACAGGGGGCCACAGCAGAAGCGUUCACGUCGCAGCCCCUGUCAGAUUCCGGUGAAUCUGCGAAUUCUGUUGUAUAUCUC [U51C C71U] has a self-cleavage of 0.62. UAACAGGGGGCCACAGCAGAAGCGUUCACGUCGCAGCCCCUGUCAGAUUCCGGUGAAUCUGCGAAUACUGCUGUAUAUCUC [U51C U67A] gave a self-cleavage of 0.56. In the case of UAACAGGGGGCCACAGCAGAAGCGUUCACGUCGCAGCCCCUGUCAGAUUCCGGUGAAUCUGCGAAUGCUGCUGUAUAUCUC [U51C U67G], the self-cleavage is reported as 0.38. Work on UAACAGGGGGCCACAGCAGAAGCGUUCACGUCGCAGCCCCUGUCAGAUUCCGGUGAAUCUGCGAAUCCUGCUGUAUAUCUC [U51C U67C] yielded a self-cleavage of 0.4. For UAACAGGGGGCCACAGCAGAAGCGUUCACGUCGCAGCCCCUGUCAGAUUCCGGUGAAUCUGCGUAUUCUGCUGUAUAUCUC [U51C A64U], the self-cleavage was 0.42. In the case of UAACAGGGGGCCACAGCAGAAGCGUUCACGUCGCAGCCCCUGUCAGAUUCCGGUGAAUCUGCGGAUUCUGCUGUAUAUCUC [U51C A64G], the self-cleavage is reported as 0.81. UAACAGGGGGCCACAGCAGAAGCGUUCACGUCGCAGCCCCUGUCAGAUUCCGGUGAAUCUGCGAAUUCUGCUAUAUAUCUC [U51C G73A] showed a self-cleavage of 1.24. In the case of UAACAGGGGGCCACAGCAGAAGCGUUCACGUCGCAGCCCCUGUCAGAUUCCGGUGAAUCUGCGAAUUCUACUGUAUAUCUC [U51C G70A], the self-cleavage is reported as 0.47. Work on UAACAGGGGGCCACAGCAGAAGCGUUCACGUCGCAGCCCCUGUCAGAUUCCGGUGAAUCGGCGAAUUCUGCUGUAUAUCUC [U51C U60G] yielded a self-cleavage of 0.4. Work on UAACAGGGGGCCACAGCAGAAGCGUUCACGUCGCAGCCCCUGUCAGAUUCCGGUGAAUCCGCGAAUUCUGCUGUAUAUCUC [U51C U60C] yielded a self-cleavage of 0.36. UAACAGGGGGCCACAGCAGAAGCGUUCACGUCGCAGCCCCUGUCAGAUUCCGGUGAAUCAGCGAAUUCUGCUGUAUAUCUC [U51C U60A] showed a self-cleavage of 0.49. Variant UAACAGGGGGCCACAGCAGAAGCGUUCACGUCGCAGCCCCUGUCAGAUUCCGGUGAAUCUGCGAGUUCUGCUGUAUAUCUC [U51C A65G] has a self-cleavage of 0.56. In the case of UAACAGGGGGCCACAGCAGAAGCGUUCACGUCGCAGCCCCUGUCAGAUUCCGGUGAAUCUGCGAUUUCUGCUGUAUAUCUC [U51C A65U], the self-cleavage is reported as 0.27. UAACAGGGGGCCACAGCAGAAGCGUUCACGUCGCAGCCCCUGUCAGAUUCCGGUGCAUCUGCGAAUUCUGCUGUAUAUCUC [U51C A56C] gave a self-cleavage of 0.31. Work on UAACAGGGGGCCACAGCAGAAGCGUUCACGUCGCAGCCCCUGUCAGAUUCCGGUGUAUCUGCGAAUUCUGCUGUAUAUCUC [U51C A56U] yielded a self-cleavage of 0.74. In the case of UAACAGGGGGCCACAGCAGAAGCGUUCACGUCGCAGCCCCUGUCAGAUUCCGGUGGAUCUGCGAAUUCUGCUGUAUAUCUC [U51C A56G], the self-cleavage is reported as 0.84. In the case of UAACAGGGGGCCACAGCAGAAGCGUUCACGUCGCAGCCCCUGUCAGAUUCCGGUGAAUCUGCGAAUUCUGCUGUAUGUCUC [U51C A77G], the self-cleavage is reported as 1.08. UAACAGGGGGCCACAGCAGAAGCGUUCACGUCGCAGCCCCUGUCAGAUUCCGGUGAAUCUGCGAAUUCUGCUGUAUCUCUC [U51C A77C] gave a self-cleavage of 0.98.
